Numbered stars: 1 amine (or outer) side, 2 acyl side, 3 side chain; on linkers, the order of the positions; unused ones are H or OH. Bridge positions count the residues as written; N and C are the ends. Square brackets hold non-standard residues; d marks the D form. Primed or numbered codes have the meaning given here. Ends that are not written are not given here. * marks the point of attachment. 5118 = (1R,2S)-ethyl 2-aminocyclohexanecarboxylate, CCOC(=O)[C@@H]1CCCC[C@@H]1N*; 5119 = (1R,2R)-ethyl 2-aminocyclohexanecarboxylate, CCOC(=O)[C@@H]1CCCC[C@H]1N*; 5116 = (1S,2R)-2-aminocyclohexanecarboxamide, NC(=O)[C@H]1CCCC[C@H]1N*; 1860″ = (1R,2R)-2-methylcyclohexanamine, C[C@@H]1CCCC[C@H]1N*; 5164 = (S)-3-amino-1-ethylazepan-2-one, CCN1CCCC[C@H](N*)C1=O; Sni = (S)-nipecotic acid, O=C([C@H]1CCCN([*:1])C1)[*:2]; 5121 = 1-propyl-butyl-amine, CCCC(CCC)N*; NMeK = CN[C@@H](CCCCN)C(=O)O; Octanoyl = CCCCCCCC(=O)*; 1270 = not defined here; 1859 = not defined here; 1860 = not defined here; 1906 = not defined here; 1934 = not defined here; 3791 = not defined here; 4956 = not defined here; 5163 = not defined here; 504 = not defined here; 559 = not defined here; 873 = not defined here; 933 = not defined here; Che = not defined here; ala = not defined here; pro = not defined here; Occ = octanoic acid
What was measured:
[1] = target: T1, natriuretic peptide receptor-B (human); assay: cell-based or functional assay
T1 chain: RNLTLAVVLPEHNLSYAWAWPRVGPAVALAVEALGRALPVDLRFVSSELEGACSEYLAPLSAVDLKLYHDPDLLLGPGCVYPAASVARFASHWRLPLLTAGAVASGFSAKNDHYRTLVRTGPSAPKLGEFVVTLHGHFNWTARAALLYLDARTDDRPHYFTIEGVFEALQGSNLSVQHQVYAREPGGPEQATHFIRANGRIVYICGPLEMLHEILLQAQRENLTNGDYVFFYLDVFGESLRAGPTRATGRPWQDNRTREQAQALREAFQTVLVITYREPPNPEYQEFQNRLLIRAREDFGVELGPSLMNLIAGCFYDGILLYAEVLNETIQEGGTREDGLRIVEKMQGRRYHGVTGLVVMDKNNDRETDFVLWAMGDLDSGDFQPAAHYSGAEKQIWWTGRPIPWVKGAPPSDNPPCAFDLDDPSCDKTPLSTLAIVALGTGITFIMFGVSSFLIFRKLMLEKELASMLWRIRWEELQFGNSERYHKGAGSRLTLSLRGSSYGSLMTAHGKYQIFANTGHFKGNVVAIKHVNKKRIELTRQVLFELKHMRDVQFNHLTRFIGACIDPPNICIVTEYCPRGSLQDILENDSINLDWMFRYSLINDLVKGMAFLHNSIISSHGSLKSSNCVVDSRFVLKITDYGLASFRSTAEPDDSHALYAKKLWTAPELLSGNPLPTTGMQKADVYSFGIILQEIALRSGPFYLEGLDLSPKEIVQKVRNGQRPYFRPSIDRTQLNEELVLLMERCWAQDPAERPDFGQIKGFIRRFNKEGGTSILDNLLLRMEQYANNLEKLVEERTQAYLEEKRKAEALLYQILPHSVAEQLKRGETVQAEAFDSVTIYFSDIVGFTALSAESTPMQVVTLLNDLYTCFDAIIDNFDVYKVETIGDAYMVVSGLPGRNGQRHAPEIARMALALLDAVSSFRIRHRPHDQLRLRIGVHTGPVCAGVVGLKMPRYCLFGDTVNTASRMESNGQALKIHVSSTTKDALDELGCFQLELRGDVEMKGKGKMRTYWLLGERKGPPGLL

[2] = target: T1, natriuretic peptide receptor-B; assay: cell-based or functional assay

| Binder | EC50 group, cGMP in GTM-3 cells [1] [µM] | other results |
| --- | --- | --- |
| Octanoyl-AAFGLKLDR[1906] (not fully specified (some residues); printed as Occ-ala-ala-Phe-Gly-Leu-Lys-Leu-Asp-Arg-1906; reading uncertain) [JAL-0801] | ≤ 5 | – |
| Octanoyl-[ala][ala]FGLKLDR[5118] (reading uncertain; also: printed as Occ-ala-ala-Phe-Gly-Leu-Lys-Leu-Asp-Arg-5118) [JAL-0831] | ≤ 15 | – |
| Octanoyl-[ala][ala]FGLKLDR[5116] (reading uncertain; also: printed as Occ-ala-ala-Phe-Gly-Leu-Lys-Leu-Asp-Arg-5116) [JAL-0825] | ≤ 15 | – |
| 4956-AFGLKLDRI-NH2 (not fully specified (some residues); printed as 4956-ala-Phe-Gly-Leu-Lys-Leu-Asp-Arg-Ile-NH2; reading uncertain) [JAL-0788] | ≤ 15 | – |
| Octanoyl-AAFGLKLDR[1859] (not fully specified (some residues); printed as Occ-ala-ala-Phe-Gly-Leu-Lys-Leu-Asp-Arg-1859; reading uncertain) [JAL-0798] | ≤ 15 | – |
| Octanoyl-AFGLKLDR-5121 (not fully specified (some residues); printed as Occ-ala-Phe-Gly-Leu-Lys-Leu-Asp-Arg-5121) [JAL-0841] | ≤ 15 | – |
| Octanoyl-[ala][ala]FGLKLDR-5164 (reading uncertain; also: printed as Occ-ala-ala-Phe-Gly-Leu-Lys-Leu-Asp-Arg-5164) [JAL-0834] | ≤ 15 | – |
| Octanoyl-AFGLKLDR-{1860″} (not fully specified (some residues); printed as Occ-ala-Phe-Gly-Leu-Lys-Leu-Asp-Arg-1860) [JAL-0839] | ≤ 5 | – |
| Octanoyl-[ala][ala]FGLKLDR[5119] (reading uncertain; also: printed as Occ-ala-ala-Phe-Gly-Leu-Lys-Leu-Asp-Arg-5119) [JAL-0826] | ≤ 5 | – |
| Octanoyl-AAFGLKLDR[559] (not fully specified (some residues); printed as Occ-ala-ala-Phe-Gly-Leu-Lys-Leu-Asp-Arg-559; reading uncertain) [JAL-0791] | ≤ 15 | – |
| Octanoyl-AFGLKLDR[Che] (not fully specified (some residues); printed as Occ-ala-Phe-Gly-Leu-Lys-Leu-Asp-Arg-Che; reading uncertain) [JAL-0840] | ≤ 15 | – |
| Octanoyl-AAFGLKLDR[1934] (not fully specified (some residues); printed as Occ-ala-ala-Phe-Gly-Leu-Lys-Leu-Asp-Arg-1934; reading uncertain) [JAL-0799] | ≤ 5 | – |
| 1270-AFGLKLDRI-NH2 (not fully specified (some residues); printed as 1270-ala-Phe-Gly-Leu-Lys-Leu-Asp-Arg-Ile-NH2; reading uncertain) [JAL-0787] | ≤ 15 | – |
| Octanoyl-[ala]FGLPLDRI-NH2 (reading uncertain; also: printed as Occ-ala-Phe-Gly-Leu-Pro-Leu-Asp-Arg-Ile-NH2) [JAL-0835] | ≤ 15 | – |
| Octanoyl-AAFGLKLDR[1860] (not fully specified (some residues); printed as Occ-ala-ala-Phe-Gly-Leu-Lys-Leu-Asp-Arg-1860; reading uncertain) [JAL-0789] | ≤ 5 | – |
| Octanoyl-[ala][ala]FGLKLDR[5163] (reading uncertain; also: printed as Occ-ala-ala-Phe-Gly-Leu-Lys-Leu-Asp-Arg-5163) [JAL-0833] | ≤ 15 | – |
| 933-AFGLKLDRI-NH2 (not fully specified (some residues); printed as 933-ala-Phe-Gly-Leu-Lys-Leu-Asp-Arg-Ile-NH2; reading uncertain) [JAL-0786] | ≤ 15 | – |
| Octanoyl-AAFGLKLDR[504] (not fully specified (some residues); printed as Occ-ala-ala-Phe-Gly-Leu-Lys-Leu-Asp-Arg-504; reading uncertain) [JAL-0790] | ≤ 15 | – |
| Octanoyl-AAFGLKLDR[873] (not fully specified (some residues); printed as Occ-ala-ala-Phe-Gly-Leu-Lys-Leu-Asp-Arg-873; reading uncertain) [JAL-0824] | ≤ 15 | – |
| Octanoyl-AAFGL[NMeK]LDRI-NH2 (not fully specified (some residues); printed as Occ-ala-ala-Phe-Gly-Leu-Nmk-Leu-Asp-Arg-Ile-) [JAL-0782] | ≤ 15 | – |
| SLRRSSCFGGRMDRIGAQSGLGCNSFRY (ligand, disulfide 7-23 (inferred)) [atrial natriuretic peptide] | – | EC50, cyclic GMP production in GTM-3 cells [2]: 1.63 µM; Emax, cyclic GMP production in GTM-3 cells [2]: 15% |
| Octanoyl-[pro]FGLPLDRI-NH2 (reading uncertain; also: printed as Occ-pro-Phe-Gly-Leu-Pro-Leu-Asp-Arg-Ile-NH2) [JAL-0836] | ≤ 15 | – |
| [Occ][Sni]FGLPLDRI-NH2 [JAL-0837] | ≤ 15 | – |
| Octanoyl-AAFGLKLDR[Che] (not fully specified (some residues); printed as Occ-ala-ala-Phe-Gly-Leu-Lys-Leu-Asp-Arg-Che; reading uncertain) [JAL-0797] | ≤ 5 | – |
| Octanoyl-AAFGLKLDR[3791] (not fully specified (some residues); printed as Occ-ala-ala-Phe-Gly-Leu-Lys-Leu-Asp-Arg-3791; reading uncertain) [JAL-0792] | ≤ 15 | – |

From patent US9187525B2, “Methods of treating ophthalmic diseases using NPR-B agonists” (Shire Orphan Therapies GmbH, dated 2015)
